From the supplement of paper PMC6755084

B1: minF1; a variant is named by its letters at N, in order (parent)
chain: GAGACCGCAACTGAAAAGTTGTTNNNNAANNNNGGNTNNATTTCTGCACGTAGAAGCAAAAGGC

Variants of: B1
Test: fraction ligated after 30 min (ligated reads / total reads); higher = more ligase activity
Details: with F1*subA RNA substrate (template-directed ligation), 42 °C
Description: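 Chip-synthesised pool of minF1 ligase ribozyme variants (single and double substitutions, single to quadruple deletions, bulge and P2 designed variants) was transcribed with T7 and reacted as a pool with excess substrate F1*subA for 30 min at 42 C in 50 mM EPPS pH 8.5, 25 mM MgCl2. Ligated and unligated RNAs were separated by PAGE, barcoded by RT and deep sequenced; fraction ligated = ligated reads / total reads, relative activity = FL / FL of wild-type minF1 (0.76); sequencing FL correlated with PAGE (R2 = 0.98). Sequences are the DNA template of the ribozyme.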
GAGACCGCAACTGAAAAGTTGTTACGAATGATGGGTTGAATTTCTGCACGTAGAAGCAAAAGGC [ACGAGATGTGA A29T] showed a fraction ligated of 0.00193. GAGACCGCAACTGAAAAGTTGTATCGAAAGATGGGTTGAATTTCTGCACGTAGAAGCAAAAGGC [TCGAGATGTGA T23A] gave a fraction ligated of 0.00396. GAGACCGCAACTGAAAAGTTGTATCGATGGATGGGTTGAATTTCTGCACGTAGAAGCAAAAGGC [TCGAGATGTGA T23A A28T A29G] showed a fraction ligated of 0.00546. GAGACCGCAACTGAAAAGTTGTATCGAAGGATGGGTTGAATTTCTGCACGTAGAAGCAAAAGGC [TCGAGATGTGA T23A A29G] showed a fraction ligated of 0.00586. With GAGACCGCAACTGAAAAGTTGTATCGAATGATGGGTTGAATTTCTGCACGTAGAAGCAAAAGGC [TCGAGATGTGA T23A A29T] the fraction ligated was 0.00198. GAGACCGCAACTGAAAAGTTGTTTCGAAAGGAGGGTTGAATTTCTGCACGTAGAAGCAAAAGGC [TCGAGGAGTGA] gave a fraction ligated of 0.00338. With GAGACCGCAACTGAAAAGTTGTTACGAAAGGAGGGTTGAATTTCTGCACGTAGAAGCAAAAGGC [ACGAGGAGTGA] the fraction ligated was 0.000641. Work on GAGACCGCAACTGAAAAGTTGTTTCGAATGGAGGGTTGAATTTCTGCACGTAGAAGCAAAAGGC [TCGAGGAGTGA A29T] yielded a fraction ligated of 0.00284. GAGACCGCAACTGAAAAGTTGTTACGAATGGAGGGTTGAATTTCTGCACGTAGAAGCAAAAGGC [ACGAGGAGTGA A29T] showed a fraction ligated of 0.00454. Variant GAGACCGCAACTGAAAAGTTGTATCGAAAGGAGGGTTGAATTTCTGCACGTAGAAGCAAAAGGC [TCGAGGAGTGA T23A] has a fraction ligated of 0.00431. In the case of GAGACCGCAACTGAAAAGTTGTATCGAATGGAGGGTTGAATTTCTGCACGTAGAAGCAAAAGGC [TCGAGGAGTGA T23A A29T], the fraction ligated is reported as 0.00108. In the case of GAGACCGCAACTGAAAAGTTGTTTCGAAAGGATGGGTTAATTTCTGCACGTAGAAGCAAAAGGC [TCGAGGATGTA], the fraction ligated is reported as 0.00168. GAGACCGCAACTGAAAAGTTGTTACGAAAGGATGGGTTAATTTCTGCACGTAGAAGCAAAAGGC [ACGAGGATGTA] showed a fraction ligated of 0.00292. Variant GAGACCGCAACTGAAAAGTTGTTTCGAATGGATGGGTTAATTTCTGCACGTAGAAGCAAAAGGC [TCGAGGATGTA A29T] has a fraction ligated of 0.00472. In the case of GAGACCGCAACTGAAAAGTTGTTACGAATGGATGGGTTAATTTCTGCACGTAGAAGCAAAAGGC [ACGAGGATGTA A29T], the fraction ligated is reported as 0.00647. In the case of GAGACCGCAACTGAAAAGTTGTATCGAAAGGATGGGTTAATTTCTGCACGTAGAAGCAAAAGGC [TCGAGGATGTA T23A], the fraction ligated is reported as 0.0024. GAGACCGCAACTGAAAAGTTGTATCGAATGGATGGGTTAATTTCTGCACGTAGAAGCAAAAGGC [TCGAGGATGTA T23A A29T] was tested, and the fraction ligated was 0.00462. GAGACCGCAACTGAAAAGTTGTTTCGAAAGGATGGGTTGATTTCTGCACGTAGAAGCAAAAGGC [TCGAGGATGTG] showed a fraction ligated of 0.00804. GAGACCGCAACTGAAAAGTTGTTACGAAAGGATGGGTTGATTTCTGCACGTAGAAGCAAAAGGC [ACGAGGATGTG] showed a fraction ligated of 0.00917. Work on GAGACCGCAACTGAAAAGTTGTTTCGAATGGATGGGTTGATTTCTGCACGTAGAAGCAAAAGGC [TCGAGGATGTG A29T] yielded a fraction ligated of 0.0133. With GAGACCGCAACTGAAAAGTTGTTACGAATGGATGGGTTGATTTCTGCACGTAGAAGCAAAAGGC [ACGAGGATGTG A29T] the fraction ligated was 0.0152. Work on GAGACCGCAACTGAAAAGTTGTATCGAAAGGATGGGTTGATTTCTGCACGTAGAAGCAAAAGGC [TCGAGGATGTG T23A] yielded a fraction ligated of 0.00538. In the case of GAGACCGCAACTGAAAAGTTGTATCGAATGGATGGGTTGATTTCTGCACGTAGAAGCAAAAGGC [TCGAGGATGTG T23A A29T], the fraction ligated is reported as 0.0128. GAGACCGCAACTGAAAAGTTGTTTCGAAAGGATGGTTGAATTTCTGCACGTAGAAGCAAAAGGC [TCGAGGATTGA] showed a fraction ligated of 0.00327. GAGACCGCAACTGAAAAGTTGTTACGAAAGGATGGTTGAATTTCTGCACGTAGAAGCAAAAGGC [ACGAGGATTGA] was tested, and the fraction ligated was 0.00256. GAGACCGCAACTGAAAAGTTGTTTCGAATGGATGGTTGAATTTCTGCACGTAGAAGCAAAAGGC [TCGAGGATTGA A29T] gave a fraction ligated of 0.00979. In the case of GAGACCGCAACTGAAAAGTTGTTACGAATGGATGGTTGAATTTCTGCACGTAGAAGCAAAAGGC [ACGAGGATTGA A29T], the fraction ligated is reported as 0.00766. GAGACCGCAACTGAAAAGTTGTATCGAAAGGATGGTTGAATTTCTGCACGTAGAAGCAAAAGGC [TCGAGGATTGA T23A] was tested, and the fraction ligated was 0.00135. GAGACCGCAACTGAAAAGTTGTATCGAATGGATGGTTGAATTTCTGCACGTAGAAGCAAAAGGC [TCGAGGATTGA T23A A29T] was tested, and the fraction ligated was 0.00747. Variant GAGACCGCAACTGAAAAGTTGTTTCGAAAGGTGGGTTGAATTTCTGCACGTAGAAGCAAAAGGC [TCGAGGTGTGA] has a fraction ligated of 0.00212. For GAGACCGCAACTGAAAAGTTGTTACGAAAGGTGGGTTGAATTTCTGCACGTAGAAGCAAAAGGC [ACGAGGTGTGA], the fraction ligated was 0.00342. For GAGACCGCAACTGAAAAGTTGTTTCGAATGGTGGGTTGAATTTCTGCACGTAGAAGCAAAAGGC [TCGAGGTGTGA A29T], the fraction ligated was 0.00308. GAGACCGCAACTGAAAAGTTGTTACGAATGGTGGGTTGAATTTCTGCACGTAGAAGCAAAAGGC [ACGAGGTGTGA A29T] was tested, and the fraction ligated was 0.00316. GAGACCGCAACTGAAAAGTTGTATCGAAAGGTGGGTTGAATTTCTGCACGTAGAAGCAAAAGGC [TCGAGGTGTGA T23A] gave a fraction ligated of 0.00322. In the case of GAGACCGCAACTGAAAAGTTGTATCGAATGGTGGGTTGAATTTCTGCACGTAGAAGCAAAAGGC [TCGAGGTGTGA T23A A29T], the fraction ligated is reported as 0.00169. GAGACCGCAACTGAAAAGTTGTTTCGAAATATGGGTTGAATTTCTGCACGTAGAAGCAAAAGGC [TCGATATGTGA] was tested, and the fraction ligated was 0.00214. Work on GAGACCGCAACTGAAAAGTTGTTACGAAATATGGGTTGAATTTCTGCACGTAGAAGCAAAAGGC [ACGATATGTGA] yielded a fraction ligated of 0.00174. GAGACCGCAACTGAAAAGTTGTATCGAAATATGGGTTGAATTTCTGCACGTAGAAGCAAAAGGC [TCGATATGTGA T23A] gave a fraction ligated of 0.00444. Work on GAGACCGCAACTGAAAAGTTGTTTCGAAATGAGGGTTGAATTTCTGCACGTAGAAGCAAAAGGC [TCGATGAGTGA] yielded a fraction ligated of 0.00207. With GAGACCGCAACTGAAAAGTTGTTACGAAATGAGGGTTGAATTTCTGCACGTAGAAGCAAAAGGC [ACGATGAGTGA] the fraction ligated was 0.0021. In the case of GAGACCGCAACTGAAAAGTTGTATCGAAATGAGGGTTGAATTTCTGCACGTAGAAGCAAAAGGC [TCGATGAGTGA T23A], the fraction ligated is reported as 0.00204. For GAGACCGCAACTGAAAAGTTGTTTCGAAATGATGGGTTAATTTCTGCACGTAGAAGCAAAAGGC [TCGATGATGTA], the fraction ligated was 0.00391.
